This passage reports lowest dIgA concentration tested, still detected results from patent publication US20150330993A1.

The target of the experiment is purified human dimeric IgA (dIgA) (human). In words: ELISA, dIgA held on anti-IgA coated plates, detected with R/HpIgR, anti-secretory component and anti-mouse HRP.

For “chimeric rabbit/human polymeric Ig receptor R/HpIgR (rabbit domain 1, human domains 2-5) (from UniProt P01833 1-638)”, the lowest dIgA concentration tested, still detected came out at 31 ng/mL.
